From KR20190006154A

B1: 4B14 (antibody, V domains shown)
VH: EVQLQQSGPEVVKPGASVKMSCKASGYSFTGYYMNWVKQSHVKSLEWIGRINPDNGATNYNQNVKDKASLTVDKSSNTAYMELHSLTSEDSAVYYCARWLLSPYVMDYWGQGTSVTVSS
VL: DIVLTQSPASLAVSLGQRATISYRASKSVSTSGYSYMHWNQQKPGQPPRLLIYLVSNLESGVPARFSGSGSGTDFTLNIHPVEEEDAATYYCQHIRELTRSEGGPSW
B2: 7F32 (antibody, V domains shown)
VH: EVQLVESGGDLVKPGGSLKLSCAASGFTFSNYGMSWGRQTPDKRLEWVATISSGGSYTYYPDSLKGRFTISRDNAKNTLYLQMTSLKSEDTAMYYCSSPYYDSSYDYSLDYWGQGTSVTVSS
VL: DIVLTQSPASLAVSLGQRATISYRASKSVSTSGYSYMHWNQQKPGQPPRLLIYLVSNLESGVPARFSGSGSGTDFTLNIHPVEEEDAATYYCQHIRELTRSEGGPSW

Biological target: FMDV O1 Manisa (Foot and Mouth Disease Virus serotype O)
Assay: indirect ELISA, inactivated FMDV coated, hybridoma supernatant

| Binder | O.D (450nm) in ELISA screening plate |
| --- | --- |
| B1 | 2.31 O.D (450nm) |
| B2 | 0.91 O.D (450nm) |
